Experimental data reported in the supplement of paper PMC9170038.

System: K4 kissing-loop RNA reporter
Experiment: apparent KD of K4 kissing-loop reporter; higher = weaker reporter binding
Conditions: Eterna round: R107
Procedure: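 RNA-MaP round R107: designed RNA switches with theophylline, tryptophan, arginine or FMN aptamers are transcribed on-chip within common flanks. They are titrated with a labelled K4 kissing-loop RNA reporter in RNA-MaP buffer (100 mM Tris pH 7.5, 80 mM KCl, 4 mM MgCl2), without ligand or with the indicated ligand. Median apparent KD per design.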

[1] = input ligand: theophylline 20 uM
[2] = input ligand: tryptophan 2.4 mM
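Note: bound reporter read as fluorescence of individual clusters on recovered sequencing chips by microscopy, with normalized cluster intensities fitted with a binding model.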

Sequence	apparent KD of K4 kissing-loop reporter (input ligand: FMN 200 uM) [nM]	apparent KD of K4 kissing-loop reporter (input ligand: arginine 13.2 mM) [nM]	apparent KD of K4 kissing-loop reporter (input ligand: none) [nM]	apparent KD of K4 kissing-loop reporter [1] [nM]	apparent KD of K4 kissing-loop reporter [2] [nM]
UGACUGGACUGAAGGAGCGCUAAACUCCUAGUGAUGUUAGGAAAACGAGACAAAGUCUCGAAGCAGGUAGGUCGCAGUCUAGUCU	172	147	177	162	169
GCAACAUUGGUAGGAUAUCAUUCUGAGUGAUGUUCAGGGUUCAGCUAACGAAAGUUAGUUGUACCAUGAGAAGGACUAAUGUUGC [Omei KL FMN B SS A v3]	337	766	1220	1060	915
GUAAGACCGGGACUCCAGUGAUGUUGGAGGCAGGAUAUCCAGUCGAGGAGAAGGGCCAGGGAUAUCGAGCUGCUCGGUUCGUAGU [Rerareatra]	81.8	101	103	107	66.5
AUUUUGGUUUAGAGUGAUGUUCCUUGUAUUCGAGGACCGGUACGGCCGCCACUCGAAUAGAAAAGAAAAGAAAUGAGUGAUGUUU [BDazzled - #4 SS Tryptophan A]	519	267	362	357	356
AUAACAAUCUGAAGGAGCGAGAAAGCAGUGAUGUUGCAAAGGCGAGUGAUGUUCGCAAUAACUCAGGUAGGUCGCAGAAACAAGA [Same State Arginine B]	142	142	187	193	119
UAUUCUGUUCGAAAGAACGGAAUUUCGGAAGGAGCGAGAGAAAUCUCAGGUAGGUCGCCGAAAUUAUUAGGUAGUGAUGUUACCU [Arginine A K4 5]	126	116	142	124	123
CUUGGAAAGACGGCCGCCACUGGCCAGUGAUGUUGGCCCACCAGGUAAGCCAAGAAGCUUGACGUCAGGACCGGGUCCUAGGAAU [Exclusion TRyptophan B GF 23]	363	449	410	314	359
CCAUUCUUUUACGAUACCAGUUUUAUUUAGUUAUUCAUAACCCUUGCCGAGUGAUGUUCGGACCCUUGGCAGCGUUUGCGAGAGG [zaadvmullin]	286	299	355	411	272
GUCCCAGUGAUGUUGGUAGGCGAGCGGGAUACCAGCCAAGACUCAGGCCCUUGGCAGCCCACAUAUCCCACGUAGGGAUUAGCUC [Same State - Theophylline A (Freestyle 19)]	212	198	223	256	173
CGCGCUGCCUGAGGAUAUAGAAACGAGUGAUGUUCGUGGACAAGAGCCAGUGAUGUUGGGUUAUUUCUAGAAGGCAGGCGAUCGU [Exclusion FMN B GF5]	124	106	128	125	97.5
AGUGGACAUGUCUAGAGUGAUGUUCUGGAUACCAGACACGAAAGUGUCCCUUGGCAGCCGGAGUGAUGUUCUGGCGUUCACUAAA [Omei KL Theo A Exc B v7]	476	267	405	414	341
CAUAGUCACUGUGAUACCAGCCCGACUCUUGGCGUCUGCGGUCAAAGCCCAGUGAUGUUGGGCCCUUGGCAGCAUGGCGGCAACA [Xelexebi]	136	114	132	112	120
AACCGUGUGGCGGCCGCCACUAGUCUCCAGUGAUGUUGGAGAGACCACGUAAGUGGUCUCCGACAUAGGACCGGGCCAUAUGGAA [Same State - Tryptophan B (Freestyle 25)]	547	339	361	531	692
UGUAUGUGUCAGCGAGUGAUGUUCGACGAUACCAGACUCGAUAGAGUCCCUUGGCAGCGUAAUGCAUGCCAACUGGCACAUACUA [#SwitchBubble 12 #K4Early]	745	651	837	608	597
ACGACGGCAGCUCAGUGAUGUUGGGCAUUACGAGGACCGGUACGGCCGCCACUCGCUGCUUUGAUCCGUGGAUGAACCUCAGCAU [theeternabot_sameState_KL_Trp_A_13]	576	464	601	734	402
AAAUUCUUUUUUUUAUUUAACUUUUCAGAAGGAGCGUGGUAGUACACAGGUAGGUCGCUGAAUUUUGGGCUAGUGAUGUUAGUUA [whbob_SS_Arginine_A_sa113]	221	217	258	311	193
AGUGAUGUUGUGUUGUGUUAGGGAAGUGAUCGAGGACCGGUACGGCCGCCACUCGAGUGAUGAGUGAGUGAUGUUUGUUUAGGGA [whbob_SS_Tryp_A_m8]	926	1290	395	3230	375
GCAGUGAUGUUGCGGAUGUACAGUGGCGUGCGAGGACCGGUACGGCCGCCACUCGUACAGAGCGAGCUAAUACAUCGAUAGGUGA [whbob_SS_Tryp_A_m5]	230	212	236	288	241
UCUAACGUUGAGGCGGCAGCGGGCCCAUCUAAGGAUAUCGGUUUACCGAGAAGGUAGUUGGACGAGAGUGAUGUUCUAUUGAGAG [theeternabot_sameState_KL_FMN_A_18]	207	211	254	642	159
AAACGCUGGAUGAAUAACAUCUAGCGAAUUCGAGGACCGGUACGGCCGCCACUCGAGCUAACUGCGAGUGAUGUUCGAUAAUAAA [Mat - Mod of OpenEnded 3 - D1]	306	451	441	524	80.9
AUUAAUUUCAGAGGAUAUGCUUAAUUGAUUUAUUAUUAUCUAUUAUGCAGUGAUGUUGCAUAUUUUGCAGAAGGCUGAUUUAUAA [JR_SSFMNB_Sub018]	123	156	140	156	125

Sequence	apparent KD of K4 kissing-loop reporter (input ligand: FMN 200 uM) [nM]	apparent KD of K4 kissing-loop reporter (input ligand: arginine 13.2 mM) [nM]	apparent KD of K4 kissing-loop reporter (input ligand: none) [nM]	apparent KD of K4 kissing-loop reporter [1] [nM]	apparent KD of K4 kissing-loop reporter [2] [nM]
AUUUUUUUGUCAGGAUAUUAGUAUGCAUUUAGUUUGUUAGUGAUGUUGAUAUUUUGUUUAUGUAUUUAAGAAGGGAUUUAGCGGU [iiikmullin]	384	217	335	340	306
UCCGUUGCGGCGGCCGCCACUGACUUAUUGAUUAGGUUGCCAGUGAUGUUGGCCACCGGUCAAUACAGGACCGGGCCAUAGCGGG [Retive]	160	208	259	148	110
AGGCCGAGCCAAGGAUAUUGUCAGAGUGAUGUUCGCCAAUACUCCAGCCGCGCCUCAUCAGCUGAGCAAGAAGGUGGUCCUCUCA [theeternabot_exclusion_KL_FMN_B_47]	244	199	221	207	209
AUUUAGACGAGUGAUGUUCGUGUUAAUACAGAGGAUAUGCGUGAUUGCAGAAGGCUGUAUUUAUAUAUGUUAUGUGGUUUUAAAA [whbob_Ex_FMNA__2th187]	76.6	115	87.2	99.7	66.3
UUAGAAGUAUACUUCAAGAGGUAUGCUGAUACCAGAGUCAAUUGACUCCCUUGGCAGCGGAUCGAGUGAUGUUCGUAACCUCAUU [AK3.1 SS Theophylline A]	160	238	209	246	141
AGACCACAAAGUGGUCAGUGUUCGCUGCAGCGAGGACCGGUACGGCCGCCACUCGCGAGUGAUGUUCGCGAGCGCAGCGAACACA [Omei KL Tryp A Exc A v5]	95.9	68.1	92.6	75.6	114
UGGACCUGACUCGAUAAGAGUCAAAGGGAUACCAGCCACGAAAGUGGCCCUUGGCAGCUCUGCCAGUGAUGUUGGUCAAGGUCCU [#SwitchBubble 6 #StaticStem]	925	701	1310	590	854
UUGGUUGUCGUAGGAUAUGUAGGAUAUUCUAAAAUAUGAAGUGAUGUUUCUAUAAUAAGAAGAAGGACAGAAGGACGAUAACCAU [FmnBS 2 - Salish transfer #DoubleAptamer]	84.7	100	111	103	99.1
UGUCGGUGAAGAAUGUUAGUGAUGUUGGCACGAGGACCGGUACGGCCGCCACUCGGUAAUCAUCGCAAUUAUCGAUGGCGUAGCC [theeternabot_exclusion_KL_Trp_A_3]	183	170	147	166	182
UAGACCUACUCAGGAUAUCCGCAGUGAUGUUGCGGUUGGCCUGAGCGACAUGAAAAUCUUACUAAAGGAGAAGGGAGAGGGUUAC [Ratiteus]	123	79.2	94.3	69.7	88.4
GGUGCUGUUUGUGCCGCCUUCCUCGUUCCUCGAGGACCGGUACGGCCGCCACUCGAGUGAUGUUUGGGUAGCGAUCCCUGCUAGC [Bdazzled - #14 Exc. Tryptophan A]	470	538	1370	566	413
CGUGAUGUAUGGCGGUUUGUCACUUAGGAUCAGGAUAUAUAAACAAAUAGAAGGGAUGGCGGAGUGAUGUUCCGCCGGCCGCCAU [FMN A Exl V8]	173	128	161	150	148
GGUAGCAUGGCGGCCGCCACUAAGAGAGUGAUGUUCUCUUAGUUUUUUGAUGUGUUAUCAAUUCUUAGGACCGGGCCAUGCUACC	111	92.4	98.2	99.8	109
AGGCACGAGCAAGGAUAUUGAGUAGAGUGAUGUUCUGCCUGGGUUGGCUCGCAAGAGCCUUCUCAGCGAGAAGGUGCUCGUGCCU [#2 Same State - FMN A Attempt #25 (HarryS)]	286	471	674	614	594
GGACUCAAAUGUAGUGAUGUUACAAGCGAUACCAGUAUCUAACAUUACCCUUGGCAGCGCGCCCAGCUCAGCAAAUUAGAUAGCG [theeternabot_sameState_KL_Theo_A_43]	149	204	178	268	114
AAGGGCUAGGCGGCCGCCACUGGUCGUGUACACAUACGAACCAGUGAUGUUGGUAUUGUAUGCGGCAGGACCGGGCCUAGCCGAA [Exclusion - Tryptophan B (Freestyle 26)]	415	447	448	614	405
AGUUUAUAGGAGGAUACCAGUACGGAUAAGGUACGUUAAUAGUAGAGUGAUGUUCUAAAGUACCCUUGGCAGCUUAGAUUGAGUU [#27 K4 Theophylline B Exclusion]	110	171	130	133	101
AUUUAUCCGUCCAGCUGAGUGAUGUUUAGCCGAGGACCGGUACGGCCGCCACUCGUAAGAACCUGUUACGUUGGCUCCUGUGGUG [theeternabot_exclusion_KL_Trp_A_49]	244	196	286	201	353
UGGAGUUGACGAAAAGUCAACUCCUGAGAUACCAGUGACGAAAGUCACCCUUGGCAGCUCACUGCCAGUGAUGUUGGAAGAUAAA [whbob_SS_Theo_A_w46]	208	149	438	289	585
CGGAGUGAUGUUCCGUUAAUUCCUUAGUUACGAGGACCGGUACGGCCGCCACUCGAUUUUAGUUUUAUUUAUUGUUUGGAAAUUU [JR_SSTryptoA_Sub008]	253	268	290	327	113
AGACGCCAGUCGGCCGCCACUCACAGCAGUGAUGUUGCUGAAAAUCUAGAAGAGUGAUGUUCUUAGAGGACCGGGACUCCAGUCG [Same State Tryptophan B GF 6]	162	153	169	141	172
